Laboratory results from PMC2818353.

Target: YAP (WW1+WW2) protein fragment, recombinant 104-amino acid polypeptide
Experiment: ITC

fold increase of the interaction over the Smad1 peptide with only the PY motif: 2.5 fold
Substance: Smad1 peptide extended to include S206 and S214 (unphosphorylated) and the PY motif
